B1: Azoarcus group I ribozyme (parent)
chain: GUGCCUUGCGCCGGGAAACCACGCAAGGGAUGGUGUCAAAUUCGGCGAAACCUAAGCGCCCGCCCGGGCGUAUGGCAACGCCGAGCCAAGCUUCGGCGCCUGCGCCGAUGAAGGUGUAGAGACUAGACGGCACCCACCUAAGGCAAACGCUAUGGUGAAGGCAUAGUCCAGGGAGUGGCGAAAGUCACACAAACCGG

Variants of: B1
Experiment: reverse-splicing fitness (ratio to wild type); higher = more active; in vitro selection; Mg2+ level not given
Method in brief: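 An in vitro group I ribozyme library with randomized positions was T7-transcribed and gel-purified. In triplicate, 10 pmol RNA in EPPS pH 7.5 was reacted with 50 pmoles of a 30-nt RNA substrate for 1 h at 37 °C across several added MgCl2 levels (1–48 mM), then stopped with EDTA. Products were reverse transcribed from a substrate-complementary primer, PCR-amplified and sequenced (HiSeq 4000). Fitness is a variant's read proportion after selection over that before, normalised to wild type.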

Row | Variant | reverse-splicing fitness
1 | C82G A111G A120U A145C C150A U176G | 0.00169
2 | C82G A111G A120U A145C C150A U176C | 0.00344
3 | C82G A111G A120U A145C C150A U176A | 0.00245
4 | C82G A111G A120G C150A C169A U176A | 0.0233
5 | C82G A111G A120G C150A C169A U176C | 0.0216
6 | C82G A111G A120G C150A C169A U176G | 0.00698
7 | C82G A111G A120G A145U C150A U176C | 0.0191
8 | C82G A111G A120G A145U C150A U176G | 0.00563
9 | C82G A111G A120G A145U C150A U176A | 0.014
10 | C82G A111G A120G C169A | 0.0124
11 | C82G A111G A120G C169U | 0.0144
12 | C82G A111G A120G C169G | 0.0219
13 | C82G A111G A120G C150U C169A | 0.0118
14 | C82G A111G A120G C150U C169G | 0.0154
15 | C82G A111G A120G C150U C169U | 0.0114
16 | C82G A111G A120G A145U C169U U176G | 0.00384
17 | C82G A111G A120G A145U C169U U176A | 0.0191
18 | C82G A111G A120G A145U C169U U176C | 0.0161
19 | C82G A111G A120G A145U C150U C169A U176G | 0.00619
20 | C82G A111G A120G A145U C150U C169A U176C | 0.0159
21 | C82G A111G A120G A145U C150U C169A U176A | 0.0154

Row | Variant | reverse-splicing fitness
22 | C82G A111G A120U A145C C150G C169A U176A | 0.00237
23 | C82G A111G A120U A145C C150G C169A U176C | 0.00236
24 | C82G A111G A120U A145C C150G C169A U176G | 0.00183
25 | C82G A111G A120U A145C C150A C169G U176G | 0.0019
26 | C82G A111G A120U A145C C150A C169G U176A | 0.00277
27 | C82G A111G A120U A145C C150A C169G U176C | 0.00215
28 | C82G A111G A120G A145U C150G C169G U176C | 0.00676
29 | C82G A111G A120G A145U C150G C169G U176G | 0.00457
30 | C82G A111G A120G A145U C150G C169G U176A | 0.00751
31 | C82G A111G A120G C150G C169G | 0.00788
32 | C82G A111G A120G C150G C169U | 0.0094
33 | C82G A111G A120G C150G C169A | 0.00983
34 | C82G A111G A120U A145C C150A C169A U176C | 0.00213
35 | C82G A111G A120U A145C C150A C169A U176A | 0.00209
36 | C82G A111G A120U A145C C150A C169A U176G | 0.00204
37 | C82G A111G A120G C150A C169G U176G | 0.00621
38 | C82G A111G A120G C150A C169G U176C | 0.0263
39 | C82G A111G A120G C150A C169G U176A | 0.0239
40 | C82G A111G A120U A145C C150U U176A | 0.00647
41 | C82G A111G A120U A145C C150U U176G | 0.00303
42 | C82G A111G A120U A145C C150U U176C | 0.00541

Row | Variant | reverse-splicing fitness
43 | C82G A111G A120U A145C C169A | 0.00211
44 | C82G A111G A120U A145C C150A | 0.00572
45 | C82G A111G A120U A145C C150U | 0.0153
46 | C82G A111G A120U A145C C150G | 0.00878
47 | C82G A111G A120U A145C C150U C169U U176C | 0.00268
48 | C82G A111G A120U A145C C150U C169U U176G | 0.00214
49 | C82G A111G A120U A145C C150U C169U U176A | 0.00258
50 | C82G A111G A120G A145U C169U | 0.012
51 | C82G A111G A120G A145U C169G | 0.0203
52 | C82G A111G A120G A145U C169A | 0.0118
53 | C82G A111G A120G C169A U176A | 0.022
54 | C82G A111G A120G C169A U176C | 0.0232
55 | C82G A111G A120G C169A U176G | 0.00429
56 | C82G A111G A120G C150G C169U U176C | 0.0158
57 | C82G A111G A120G C150G C169U U176G | 0.00715
58 | C82G A111G A120G C150G C169U U176A | 0.0119
59 | C82G A111G A120G C150A C169A | 0.0123
60 | C82G A111G A120G C150A C169U | 0.00799
61 | C82G A111G A120G C150A C169G | 0.0105
62 | C82G A111G A120G A145U C150G C169U U176A | 0.0117
63 | C82G A111G A120G A145U C150G C169U U176C | 0.0149

Row | Variant | reverse-splicing fitness
64 | C82G A111G A120G A145U C150G C169U U176G | 0.00523
65 | C82G A111G A120G A145U C169A U176A | 0.0151
66 | C82G A111G A120G A145U C169A U176C | 0.0152
67 | C82G A111G A120G A145U C169A U176G | 0.00446
68 | C82G A111G A120G A145U C150U C169G U176C | 0.0179
69 | C82G A111G A120G A145U C150U C169G U176G | 0.00518
70 | C82G A111G A120G A145U C150U C169G U176A | 0.0161
71 | C82G A111G A120U A145C C150G U176A | 0.00327
72 | C82G A111G A120U A145C C150G U176C | 0.00396
73 | C82G A111G A120U A145C C150G U176G | 0.00247
74 | C82G A111G A120G C169U U176C | 0.0198
75 | C82G A111G A120G C169U U176A | 0.0199
76 | C82G A111G A120G C169U U176G | 0.00595
77 | C82G A111G A120U A145C C150U C169G U176A | 0.00296
78 | C82G A111G A120U A145C C150U C169G U176C | 0.0031
79 | C82G A111G A120U A145C C150U C169G U176G | 0.00185
80 | C82G A111G A120U A145C C150A C169U | 0.00246
81 | C82G A111G A120U A145C C150A C169A | 0.00228
82 | C82G A111G A120U A145C C150A C169G | 0.00251
83 | C82G A111G A120G A145U C150G U176G | 0.00436
